Assay results: patent publication US20130171179A1 (OREGON HEALTH AND SCIENCE UNIVERSITY, published 2013)
Primed or numbered codes have the meaning given here. Ends that are not written are not given here. FITC′ = fluorescein isothiocyanate label

Tests used:
[1] = biological target: T1, recombinant IAg7 (rIAg7; RTL450), single polypeptide comprising the β1 and α1 domains of the MHC class II … (mouse); experiment: disulfide capture of FITC-labeled peptides, SDS-PAGE
T1 construct: no peptide attached; Internal C17-C79 disulfide bond; also called empty rIAg7; rIA7
T1 chain: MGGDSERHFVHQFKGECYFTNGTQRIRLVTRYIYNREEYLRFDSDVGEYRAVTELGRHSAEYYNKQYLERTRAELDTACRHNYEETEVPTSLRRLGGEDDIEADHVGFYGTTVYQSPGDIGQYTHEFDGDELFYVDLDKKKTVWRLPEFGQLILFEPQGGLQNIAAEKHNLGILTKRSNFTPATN

[2] = biological target: T1, recombinant IAg7 (rIAg7; RTL450), …; experiment: disulfide capture of amino-terminal truncated peptides, SDS-PAGE
Protocol: (§1) A mixture of 10:1 peptide:rIAg7 at 200 μg/ml, 100 mM NaPO₄ pH 6.5; 150 mM NaCl; 0.05% SDS; and 0.01% NaN₃ was produced. After inspecting the mixture for any precipitation, reactions were incubated at 37° C. for 60 hours. Analysis of ability of redox capture conditions to facilitate peptide capture by MHC was performed as follows: 20 μl aliquots at various time points were mixed with an equal volume of 2× electrophoresis sample buffer (1% glycerol, 500 mM Tris, 0.2% SDS, and bromophenol blue at pH 8.0). Samples were then placed on ice for 30 minutes, heated at 90° C. for 6 minutes with or without β-mercaptoethanol and separated by 10-20% SDS-PAGE followed by Coomassie Blue staining to visualize the proteins. Proteins were quantified by densitometry scanning using Molecular Imager FX 5 and Quantity One software (Bio-Rad, Hercules, Calif.).
Coomassie stained bands (29 kD and 31 kD, as indicated) were quantified to determine an initial rate of capture (FIG. 3). Insulin B:16-23 peptide (FITC-[…]; SEQ ID NO: 1) and rIAg7 were mixed (10:1, peptide:rIAg7) in 100 mM NaPO₄, pH 6.5, 150 mM NaCl, 0.05% SDS, and 0.01% NaN₃ and allowed to incubate for the indicated time.

[3] = biological target: T2, recombinant human DR2 (β1α1 RTL) (human); experiment: disulfide capture, SDS-PAGE
T2 construct: Single-chain two-domain MHC class II polypeptide, with no peptide attached before loading; also called rDR2; DR2 RTL
T2 chain: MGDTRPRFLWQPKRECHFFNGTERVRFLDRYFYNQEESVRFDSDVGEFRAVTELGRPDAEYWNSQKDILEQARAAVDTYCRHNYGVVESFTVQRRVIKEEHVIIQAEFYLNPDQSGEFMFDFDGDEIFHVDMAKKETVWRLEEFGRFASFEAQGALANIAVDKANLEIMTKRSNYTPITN

[4] = biological target: T3, recombinant murine I-A^b (β1α1 RTL) (mouse); experiment: disulfide capture, SDS-PAGE
T3 construct: Single-chain two-domain MHC class II polypeptide, with no peptide attached before loading; also called rI-A^b RTL; rIAb
T3 chain: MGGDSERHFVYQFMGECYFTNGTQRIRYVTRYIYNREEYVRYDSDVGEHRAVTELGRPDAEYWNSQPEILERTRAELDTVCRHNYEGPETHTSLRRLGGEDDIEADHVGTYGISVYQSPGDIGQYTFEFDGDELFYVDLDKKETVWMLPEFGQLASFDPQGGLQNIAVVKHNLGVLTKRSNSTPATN

[5] = biological target: T1, recombinant IAg7 (rIAg7; RTL450), …; experiment: disulfide capture, Coomassie stained SDS-PAGE
Protocol: as §1
A recombinant form of IAg7 (rIAg7) comprising the β1 and α1 domains of the MHC class II molecule expressed as a single polypeptide (rIAg7; RTL450-series) was designed. IAg7-derived constructs are readily produced in E. coli, are well-behaved in aqueous buffers, and bind antigenic peptides. All MHC class II β1 domains comprise a disulfide bond between cysteine 17 and cysteine 79. Insulin B:9-23 is an antigenic peptide that binds IAg7 and comprises a cysteine residue at position 19. […]

B1: FITC-labeled insulin B:9-23 C20 variant (cysteine moved to position 20) (peptide)
peptide: {FITC′}-SHLVEALYLVACERG
[1]
  binding result: binds

B2: FITC-labeled 8-mer insulin B:16-23 peptide (peptide)
peptide: {FITC′}-YLVCGERG
notes: The C-terminal 8 amino acids of B:9-23
[2]
  binding result: binds

B3: MOG35-55 P43C variant (peptide)
peptide: MEVGWYRSCFSRVVHLYRNGK
notes: also called hMOG35-55 P43C variant
[3]
  binding result: binds

B4: MOG35-55 S42C variant (peptide)
peptide: MEVGWYRCPFSRVVHLYRNGK
notes: also called hMOG35-55 S42C variant
[3]
  binding result: binds

B5: FITC-labeled insulin B:9-23 C18 variant (cysteine moved to position 18) (peptide)
peptide: {FITC′}-SHLVEALYLCAGERG
[1]
  binding result: binds

B6: S45C mutated mouse MOG35-55 (peptide)
peptide: MEVGWYRPPFCRVVHLYRNGK
notes: also called mMOG35-55 S45C variant; mouse MOG35-55 S45C variant
[4]
  binding result: binds

B7: FITC-labeled insulin B:9-23 peptide, wild-type sequence (C19) (peptide)
peptide: {FITC′}-SHLVEALYLVCGERG
notes: also called Wild-type insulin B:9-23 peptide (C19); amino-terminal FITC-coupled B:9-23
[1]
  binding result: binds

B8: insulin B:9-23 peptide (peptide)
peptide: SHLVEALYLVCGERG
notes: Synthetic peptide; also called Insulin B:9-23 (WT); InsB:9-23
[5]
  binding result: binds
